Measured values from paper doi:10.1101/2020.07.08.194100.

Legend:
[1] = biological target: GST-RhoA^N19 (inactive RhoA) (UniProt P61586); assay: pull-down
[2] = biological target: GST-RhoA^V14 (constitutively active RhoA) (UniProt P61586); assay: pull-down

- fold change of binding after PMA against vehicle control [1]: 2 fold
- fold change of binding after PMA against vehicle control [2]: 2 fold
Substance: HA-tagged wild-type diacylglycerol kinase ζ (HA-DGKζ) (enzyme)
